Measured values from US20240117018A1 (UNIVERSITY OF MARYLAND BALTIMORE, published 2024).
Where a chain is given by its changes, count along the chain named. Like-named read-outs stand apart in the source and are kept apart here.

Assays:
[1] = target: monomeric HIV-1 Ba-L gp120 (HIV-1 Ba-L)
[2] = target: monomeric HIV-1 Ba-L gp120 (HIV-1 Ba-L); remark: listed apart in the source
[3] = target: monomeric HIV-1 Ba-L gp120 (HIV-1 Ba-L); remark: listed apart in the source

B1: N49P11 (antibody, V domains shown)
V domain 1: SAELVQSGAVVKKPGTSVKVSCQAYGYTFTDYLIHWLRQAPGQGLEWMGWMNPVYGQVNYAQNFQGRVSMTRDIYRETAFLEVRDLKTDDTGTYYCVRDTGDGSRRHFDSINWFLDLWGRGTWIRVAP
V domain 2: QCVLTQPRSVSGSPGQSVTISCTGTHNYVSWCQHHPGNAPKLLLYDFDKRPSGISDRFSGSRSGNTASLTISGLQPEDEADYFCWAFEAFGGGTKVLVLR
[1]
  Kd: 15.6 nM

B2: N49P7 (antibody)
heavy: not shown
light: QSALTQPRSVSASPGQSVTISCTGTHNLVSWCQHQPGRAPKLLIYDFNKRPSGVPDRFSGSGSGGTASLTITGLQDDDDAEYFCWAYEAFGGGTKLTVLGQPKAAPSVTLFPPSSEELQANKATLVCLISDFYPGAVTVAWKADSSPVKAGVETTTPSKQSNNKYAASSYLSLTPEQWKSHRSYSCQVTHEGSTVEKTVAPTECS
[2]
  Kd: 0.86 nM

B3: N49P7.1 (antibody)
heavy: not shown
light: B2 light with G100R
[3]
  Kd: 1.14 nM
